Experimental data from US5866544A, “Peptide-chelator conjugates” (Resolution Pharmaceuticals, Inc., priority 1997, dated 1999).
Where no end group is shown, it is not given here. The star is where a group is joined. Bz‑MA = benzoylmercaptoacetyl chelator, O=C(SCC(=O)*)c1ccccc1; Picolinoyl = O=C(c1ccccn1)*; Acm = CC(=O)NC*

Tests used:
[1] = tested on: rat inflammation model (E. coli, left hindleg); assay: Biodistribution and imaging of Tc-99m labelled conjugates in a rat inflammation model; settings: for Blood / G.I. tract / Urine: Tc-99m labelled conjugate i.v.; for inflam muscle: inflamed muscle (left leg); for Uninfl muscle: non-inflamed muscle (right leg); for Inflam:Uninfl: ratio inflamed to uninflamed muscle
[2] = in vivo; cited from earlier work

Substance | Blood ([1]; Time 35 min) | G.I. tract ([1]; Time 35 min) | Urine ([1]; Time 35 min) | inflam muscle ([1]; Time 35 min) | Uninfl muscle ([1]; Time 35 min) | Inflam:Uninfl ([1]; Time 35 min) | further results
PicSerCys(Acm) Gly TKPRTKPR: chelator PicSerCys(Acm), linking group Gly, peptide TKPRTKPR (tuftsin dimer, Seq ID no: 10); comparison conjugate ({Picolinoyl-Ser-Cys(Acm)}-GTKPRTKPR) | 0.136 % dose/g | 4.2 | 16.1 | 0.071 % dose/g | 0.022 % dose/g | 3.2 | accumulation in blood, in words [1]: low accumulation; accumulation in the GI tract, in words [1]: low accumulation; urine levels / clearance into the urine, in words [1]: particularly low urine levels
PicSerCys(Acm) Gly RTKPR: chelator PicSerCys(Acm), linking group Gly, peptide RTKPR (Seq ID no: 11); comparison conjugate ({Picolinoyl-Ser-Cys(Acm)}-GRTKPR) | 0.169 % dose/g | 15.0 | 45.4 | 0.099 % dose/g | 0.033 % dose/g | 3.0 | –
PicSerCys(Acm) Gly TKPR: chelator PicSerCys(Acm), linking group Gly, native tuftsin peptide TKPR (Seq ID no: 1); comparison conjugate ({Picolinoyl-Ser-Cys(Acm)}-GTKPR) | 0.268 % dose/g | 22.8 | 22.8 | 0.120 % dose/g | 0.040 % dose/g | 3.0 | –
Pic-Ser-Cys(Acm)-Gly-TKPPR (Picolinoyl-SC(Acm)GTKPPR) [PicSerCys(Acm) Gly TKPPR] | – | – | – | – | – | – | Blood ([1]; Time 30 min): 0.392 % dose/g; G.I. tract ([1]; Time 30 min): 5.08; Urine ([1]; Time 30 min): 44.71; Blood ([1]; Time 180 min): 0.048 % dose/g; G.I. tract ([1]; Time 180 min): 3.71; Urine ([1]; Time 180 min): 80.62; inflam muscle ([1]; Time 30 min): 0.154 % dose/g; inflam muscle ([1]; Time 180 min): 0.026 % dose/g; Uninfl muscle ([1]; Time 30 min): 0.052 % dose/g; Uninfl muscle ([1]; Time 180 min): 0.006 % dose/g; Inflam:Uninfl ([1]; Time 30 min): 3.6; Inflam:Uninfl ([1]; Time 180 min): 4.7
PicSerCys(Acm) Gly KPPR: chelator PicSerCys(Acm), linking group Gly, peptide KPPR (Seq ID no: 9); comparison conjugate ({Picolinoyl-Ser-Cys(Acm)}-GKPPR) | – | – | – | – | – | – | Blood ([1]; Time 45 min): 0.220 % dose/g; Urine ([1]; Time 45 min): 43.5; inflam muscle ([1]; Time 45 min): 0.125 % dose/g; Uninfl muscle ([1]; Time 45 min): 0.059 % dose/g; Inflam:Uninfl ([1]; Time 45 min): 2.1
Bz-MA-Ser-Cys-Ser-Gly-Asp-Gly-TKPPR ({Bz‑MA}-SCSGDGTKPPR) [BzMASerCys SGDG- TKPPR] | 0.483 % dose/g | – | 47.8 | 0.226 % dose/g | 0.057 % dose/g | 4.0 | –
Pic-Ser-Cys(Acm)-Gly-Asp-Gly-TKPPR (Picolinoyl-SC(Acm)GDGTKPPR) [PicSerCys(Acm) GDG TKPPR] | 0.228 % dose/g | – | 63.1 | 0.166 % dose/g | 0.034 % dose/g | 4.9 | –
labelled tuftsin: naturally occurring tetrapeptide tuftsin TKPR (Seq. ID no:1) labelled with a radionuclide metal (also: labelled with a radionuclide metal) | – | – | – | – | – | – | accumulation in non-target tissue (gastrointestinal tract), in words [2]: accumulated in the gastrointestinal tract
